Measured values from publication PMC9509318 (2022).

T1: Pfs48/45 full-length ectodomain (Plasmodium falciparum, UniProt Q8I6T1 27-427)
T1 chain: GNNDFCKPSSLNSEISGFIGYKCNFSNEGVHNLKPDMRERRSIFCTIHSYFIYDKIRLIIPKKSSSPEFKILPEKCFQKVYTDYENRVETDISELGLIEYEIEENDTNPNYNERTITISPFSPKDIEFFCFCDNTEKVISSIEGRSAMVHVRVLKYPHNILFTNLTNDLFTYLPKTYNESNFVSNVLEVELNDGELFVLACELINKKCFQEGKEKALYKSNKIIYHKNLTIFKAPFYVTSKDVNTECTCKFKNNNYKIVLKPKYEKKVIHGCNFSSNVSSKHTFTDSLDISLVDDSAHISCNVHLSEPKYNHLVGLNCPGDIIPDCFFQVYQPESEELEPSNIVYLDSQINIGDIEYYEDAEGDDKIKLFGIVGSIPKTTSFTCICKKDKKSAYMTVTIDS

B1: 32F3 monoclonal antibody (antibody, V domains shown)
VH: DVKLVESGGGLVKLGGSLKLSCAASGFTFSSYYMSWVRQTPEKRLELVAAINNNGGSTYYPDTVKGRFTISRDNAKNTLNLQMNSLKSEDTALYYCTRQHYGNLYFFDYWGQGTTLTVSS
VL: QIVLSQSPAILSASPGEKVTMTCRASSSVTYIHWYQQKPGSSPKPWIQATSSLASGVPARFSGSGSGTSYSLSISRVEAEDAATYYCQQWSSNPLTFGAGTKLELK
B2: 10D8 monoclonal antibody (antibody, V domains shown)
VH: EVMLVESGGDLVKPGGSLKVSCAASGFTFSNYAMSWVRQTPEKRLEWVATISSGASYTHYPDSVKGRFTISRDNAKNTLYLQMSSLRSEDTAMYYCGRQVNRHDRALDAMDYWGQGTSVTVSP
VL: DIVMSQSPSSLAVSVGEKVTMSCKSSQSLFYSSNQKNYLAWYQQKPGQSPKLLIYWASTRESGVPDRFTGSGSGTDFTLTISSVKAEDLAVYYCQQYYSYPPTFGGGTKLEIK
B3: 85RF45.1 monoclonal antibody (antibody, V domains shown)
VH: EVQLVESGGGLLQPGRSLKLSCVASGFTFNNYWMSWIRQAPGKGLEWIASISNIGGTIYYPDSVKGRFTISRDSAQNTLYLQMNSLRSEDTATYYCTRDLRMSDYFDYWGQGVMVTVSS
VL: QFVLSQPNSVSTNLGSTVKLSCKRSTGNIGSNYVSWYQHHEGRSPTTMIYRDDQRPDGVPDRFSGSIDRSSNSALLTIDNVQTEDEAAYFCHSYSTGMYIFGGGTKLTVL

Assays:
[1] = molecular target: T1, Pfs48/45 full-length ectodomain; test: SPR
[2] = molecular target: T1, Pfs48/45 full-length ectodomain; test: SPR

Row | Binder | Kd [1] [nM] | koff [2] [s⁻¹]
1 | B1 | 4.1 | 0.000121
2 | B2 | 35.8 | 0.0027
3 | B3 | 1.34 | –
